In assay [1] the target is T1, CEP1 (X at 6 and 12 = citrulline; biotin-conjugated for SPR and Luminex).
T1 construct: CKIHAXEIFDSXGNPTVECK; derived from alpha-enolase; also called CEPI; citrullinated alpha-enolase peptide
T1 peptide: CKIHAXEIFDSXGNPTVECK
As to the kind of experiment: SPR (Biacore 2000), biotinylated CEP1 on a streptavidin chip, Fab as analyte up to about 3400 nM; plot of RU against concentration; REP1 channel as reference per the legend. How it is done: (§1) SPR sensorgrams of chimeric E4NG Fab fragment (A), E4 (B), F3(C), D10 (D), and B2 (E) binding to immobilized CEP1. Response Units (R.U.) reflect the value of subtracting […]. A series of analyte concentrations were tested. The binding of E4NG (F) and F3 (G) to citrullinated Histone2A peptide were analyzed in a similar way as shown in (A)-(E).
(§2) Surface plasmon resonance analysis. Binding of peptides to the given antibody was analyzed by SPR using a Biacore 2000 biosensor at 25° C. Briefly, the biotin-conjugated peptide was coupled to an […] by streptavidin binding. Then the Fab fragment or full-length antibody was diluted in PBS-P running buffer (20 mM phosphate buffer, 2.7 mM KCl, 137 mM NaCl and 0.05% Surfactant P20) and injected at in a series of concentrations. Data processing and analysis were performed using Biacore 2000 evaluation software.
Background: SPR reads the build-up and loss of mass on a sensor chip optically.

For assay [2], the target named is T1, CEP1. As to the kind of experiment: SPR, CEP1 immobilised. As to the method:
as §2

Assay [3] addresses T1, CEP1. The assay is described as follows: SPR (Biacore 2000), biotinylated CEP1 on a streptavidin chip, full antibody as analyte up to 200 nM; plot of RU against concentration; REP1 channel as reference per the legend; the legend says only E4, paragraph 117 ties the CEP1 Kd to E4NG. As to the method:
as §1, §2

B1: chimeric E4NG Fab fragment (murine IgG2b constant region) (Fab)
heavy: QVQLEESGPGLVRPSETLSLSCTVSGFPMSESYFWGWIRQSPGKGLEWLGSVIHTGTTYYRPSLESRLTIAMDPSKNQVSLSLTSVTVADSAMYYCVRIRGGSSNWLDPWGPGIVVTASS
light: QSVWTQPPSVSAAPGQKVTISCSGDDSILRSAFVSWYQQVPGSAPKLVIFDDRQRPSGIPARFSGSNSGTTATLDIAGLQRGDEADYYCAAWNGRLSAFVFGSGTKLTVLGQPKSSPSVTLFPPSSEELETNKATLVCTITDFYPGVVTVDWKVDGTPVTQGMETTQPSKQSNNKYMASSYLTLTARAWERHSSYSCQVTHEGHTVEKSLSRADCS
notes: domain: constant region; Fab made with the ImmunoPure Fab Preparation Kit (papain); also called E4Fab; mE4Fab; not shown: part of the mouse IgG2b constant region (UniProtKB P01867) left in the Fab after cleavage
Usually Kd stands for the equilibrium constant for the complex coming apart. Turning to B1, in assay [1], the Kd was 2300 nM.

B2: chimeric E4NG (antibody, mouse IgG2b)
heavy: QVQLEESGPGLVRPSETLSLSCTVSGFPMSESYFWGWIRQSPGKGLEWLGSVIHTGTTYYRPSLESRLTIAMDPSKNQVSLSLTSVTVADSAMYYCVRIRGGSSNWLDPWGPGIVVTASS
light: QSVWTQPPSVSAAPGQKVTISCSGDDSILRSAFVSWYQQVPGSAPKLVIFDDRQRPSGIPARFSGSNSGTTATLDIAGLQRGDEADYYCAAWNGRLSAFVFGSGTKLTVLGQPKSSPSVTLFPPSSEELETNKATLVCTITDFYPGVVTVDWKVDGTPVTQGMETTQPSKQSNNKYMASSYLTLTARAWERHSSYSCQVTHEGHTVEKSLSRADCS
notes: domain: constant region; Human E4 variable regions on mouse IgG2b/lambda-1 constant regions; also called chimeric non-glycosylated (NG) E4; mE4; not shown: mouse IgG2b heavy chain constant region, UniProtKB P01867
For the molecule B2, the Kd in assay [2] stood at 0.25 nM; in assay [3] it was 250 nM.

These data come from US20200291133A1 (VACARA, published 2020).
